Results reported in PMC12247212 (RSC Chemical Biology, 2025).
One block for each binder: values may come before it.

Key:
CD16a-mMBP [1] = biological target: T1, CD16a-mMBP (Homo sapiens, allotype  …, UniProt P08637); assay: BLI; SpyBLI single-cycle kinetics, Octet-K2; purified SpyTagged nanobody or scFv loaded at 100 nM onto biotinylated SpyCatcher003 S49C on streptavidin sensors; purified antigen as analyte at five increasing concentrations; 30 °C, 1000 rpm, PBS pH 7.5, 0.05% Tween-20; 1:1 standard model (1:1 partial dissociation model for Nb24); averages of three independent experiments; settings: both partners purified
T1 construct: monovalent antigen; MW ~63 kDa; also called CD16a (FCGR3A); FcγRIIIa; source: Expi293F, transfected (pcDNA3.4 without SpyTag003), harvested 6 days post-transfection, purified

CD16a-mMBP [2] = biological target: T1, CD16a-mMBP; assay: BLI; SpyBLI single-cycle kinetics, Octet-K2; SpyTagged nanobody or scFv loaded from crude mammalian cell supernatant (1:1 with PBS + 0.05% Tween-20) onto biotinylated SpyCatcher003 S49C on streptavidin sensors; purified antigen as analyte at five increasing concentrations; 30 °C, 1000 rpm, PBS pH 7.5, 0.05% Tween-20; 1:1 standard model (1:1 partial dissociation model for Nb24); averages of three independent …; settings: one partner purified
CD16a-mMBP [3] = biological target: T1, CD16a-mMBP; assay: BLI; SpyBLI single-cycle kinetics, Octet-K2; SpyTagged nanobody or scFv loaded from cell-free reaction blend (diluted 100-fold in PBS + 0.05% Tween-20) onto biotinylated SpyCatcher003 S49C on streptavidin sensors; purified antigen as analyte at five increasing concentrations; 30 °C, 1000 rpm, PBS pH 7.5, 0.05% Tween-20; 1:1 standard model (1:1 partial dissociation model for Nb24); averages of three independent …; settings: one partner purified
β2-microglobulin [4] = biological target: T2, β2-microglobulin (Homo sapiens (assumed), UniProt P61769); assay: BLI; SpyBLI single-cycle kinetics, Octet-K2; purified SpyTagged nanobody or scFv loaded at 100 nM onto biotinylated SpyCatcher003 S49C on streptavidin sensors; purified antigen as analyte at five increasing concentrations; 30 °C, 1000 rpm, PBS pH 7.5, 0.05% Tween-20; 1:1 standard model (1:1 partial dissociation model for Nb24); averages of three independent experiments; settings: both partners purified
T2 construct: β2-microglobulin, recombinant; MW ~12 kDa

β2-microglobulin [5] = biological target: T2, β2-microglobulin; assay: BLI; SpyBLI single-cycle kinetics, Octet-K2; SpyTagged nanobody or scFv loaded from crude mammalian cell supernatant (1:1 with PBS + 0.05% Tween-20) onto biotinylated SpyCatcher003 S49C on streptavidin sensors; purified antigen as analyte at five increasing concentrations; 30 °C, 1000 rpm, PBS pH 7.5, 0.05% Tween-20; 1:1 standard model (1:1 partial dissociation model for Nb24); averages of three independent …; settings: one partner purified
β2-microglobulin [6] = biological target: T2, β2-microglobulin; assay: BLI; SpyBLI single-cycle kinetics, Octet-K2; SpyTagged nanobody or scFv loaded from cell-free reaction blend (diluted 100-fold in PBS + 0.05% Tween-20) onto biotinylated SpyCatcher003 S49C on streptavidin sensors; purified antigen as analyte at five increasing concentrations; 30 °C, 1000 rpm, PBS pH 7.5, 0.05% Tween-20; 1:1 standard model (1:1 partial dissociation model for Nb24); averages of three independent …; settings: one partner purified
hen egg-white lysozyme = biological target: T3, hen egg-white lysozyme (Gallus gallus, UniProt P00698); assay: as above; settings: one partner purified
T3 construct: lysozyme from chicken egg-white, Sigma-Aldrich 62971; also called Lysozyme from chicken egg-white; source: bought: Sigma-Aldrich (62971); further purified by SEC (Superdex 75 Increase)
T3 sequence (P00698 19-147): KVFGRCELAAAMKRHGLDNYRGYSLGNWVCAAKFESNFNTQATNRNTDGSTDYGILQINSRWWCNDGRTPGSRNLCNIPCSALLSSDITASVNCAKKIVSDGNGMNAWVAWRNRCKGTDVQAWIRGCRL

T1 sequence (P08637 17-254): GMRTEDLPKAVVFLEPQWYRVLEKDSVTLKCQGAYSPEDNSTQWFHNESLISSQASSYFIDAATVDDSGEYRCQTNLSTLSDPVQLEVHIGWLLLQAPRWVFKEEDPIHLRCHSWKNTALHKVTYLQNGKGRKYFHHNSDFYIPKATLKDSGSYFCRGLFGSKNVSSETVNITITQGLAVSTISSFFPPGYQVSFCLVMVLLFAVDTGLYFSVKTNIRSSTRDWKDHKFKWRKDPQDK

Kd (β2-microglobulin [4]): 49.6 nM
koff (β2-microglobulin [4]): 0.0112 s⁻¹
kon (β2-microglobulin [4]): 230000 M⁻¹ s⁻¹
Kd (β2-microglobulin [5]): 50 nM
koff (β2-microglobulin [5]): 0.0114 s⁻¹
kon (β2-microglobulin [5]): 240000 M⁻¹ s⁻¹
B3: Nb24, SpyTagged nanobody (mammalian expression) (VHH)
VHH: QVQLQESGGGSVQAGGSLRLSCAASGYTDSRYCMAWFRQAPGKEREWVARINSGRDITYYADSVKGRFTFSQDNAKNTVYLQMDSLEPEDTATYYCATDIPLRCRDIVAKGGDGFRYWGQGTQVTVSS
notes: nanobody Nb24; (G3S)2 linker between the nanobody and SpyTag003; Covalently captured on biotinylated SpyCatcher003 S49C on streptavidin sensors; also called anti-β2-microglobulin nanobody Nb24; Nb24-SpyTag003; source: Expi293F, transfected (pcDNA3.4); purified (His Mag Sepharose Excel, SEC) or used directly as crude mammalian cell supernatant; not shown: SpyTag003 (after a (G3S)2 linker), …

Kd (hen egg-white lysozyme): 0.67 nM
koff (hen egg-white lysozyme): 0.00116 s⁻¹
kon (hen egg-white lysozyme): 1.7e+06 M⁻¹ s⁻¹
B5: cAb-Lys3, SpyTagged nanobody (VHH)
VHH: DVQLQASGGGSVQAGGSLRLSCAASGYTIGPYCMGWFRQAPGKEREGVAAINMGGGITYYADSVKGRFTISQDNAKNTVYLLMNSLEPEDTAIYYCAADSTIYASYYECGHGLSTGGYGYDSWGQGTQVTVSS
notes: nanobody cAb-Lys3; The cell-free fragment design has an optional His-tag; also called Nb cAb-Lys3; not shown: SpyTag003 (after a (G3S)2 linker), C-terminal, kept

Second part, the binder before the results:

B1: anti-CD16a scFv, SpyTagged (mammalian expression) (scFv, V domains shown)
VH: EVQLVQSGAEVKKPGESLKVSCKASGYTFTSYYMHWVRQAPGQGLEWMGAIEPMYGSTSYAQKFQGRVTMTRDTSTSTVYMELSSLRSEDTAVYYCARGSAYYYDFADYWGQGTLVTVSS
VL: SYVLTQPSSVSVAPGQTATISCGGHNIGSKNVHWYQQRPGQSPVLVIYQDNKRPSGIPERFSGSNSGNTATLTISGTQAMDEADYYCQVWDNYSVLFGGGTKLTVL
notes: scFv of the FcγRIIIa-targeting arm of RO7297089; (G3S)2 linker between the scFv and SpyTag003; also called FcγRIIIa-targeting arm of the bispecific antibody RO7297089; source: Expi293F, transfected (pcDNA3.4); purified (His Mag Sepharose Excel, SEC) or used directly as crude mammalian cell supernatant; not shown: SpyTag003 (after a (G3S)2 linker), C-terminal, kept
Kd (CD16a-mMBP [1]): 6.7 nM
koff (CD16a-mMBP [1]): 0.00113 s⁻¹
kon (CD16a-mMBP [1]): 171000 M⁻¹ s⁻¹
Kd (CD16a-mMBP [2]): 4.3 nM
koff (CD16a-mMBP [2]): 0.00081 s⁻¹
kon (CD16a-mMBP [2]): 187000 M⁻¹ s⁻¹

B2: anti-CD16a scFv, SpyTagged (cell-free expression) (scFv, V domains shown)
VH: B1 VH
VL: B1 VL
notes: as the scFv of m3; The cell-free fragment design has an optional His-tag; not shown: SpyTag003 (after a (G3S)2 linker), C-terminal, kept
Kd (CD16a-mMBP [3]): 8.1 nM
koff (CD16a-mMBP [3]): 0.0018 s⁻¹
kon (CD16a-mMBP [3]): 220000 M⁻¹ s⁻¹

B4: Nb24, SpyTagged nanobody (cell-free expression) (VHH)
VHH: B3 VHH
notes: nanobody Nb24; as the VHH of m1; The cell-free fragment design has an optional His-tag; also called Nb24-SpyTag003; not shown: SpyTag003 (after a (G3S)2 linker), C-terminal, kept
Kd (β2-microglobulin [6]): 63.8 nM
koff (β2-microglobulin [6]): 0.014 s⁻¹
kon (β2-microglobulin [6]): 220000 M⁻¹ s⁻¹
